US20150010525A1, “Catalytic Tagging System to Study Macro-Molecular Interactions Using Engineered Ubiquitin Ligase and Ubiquitin-Like Proteins to Facilitate Substrate Identification” (THE REGENTS OF THE UNIVERSITY OF CALIFORNIA, priority 2012, published 2015)

How the values were obtained:
cIAP1 = target: T1, cIAP1 (Homo sapiens, UniProt P61081+Q13490); experiment: SILAC mass spectrometry screen for cIAP1 substrates with NEDDylator^cIAP1 in apoptotic Jurkat cell lysate; assay type: biochemical; settings: Light lysate with NEDDylator^cIAP1, Heavy lysate with Ubc12
T1 construct: cIAP1(ΔR) (residues 1-555); GST (N, cleaved yes); made in house; host or cells: E. coli BL21 (DE3)
Protocol: Jurkat cells were grown in media containing either light or heavy isotopes of lysine and arginine and induced to undergo apoptosis with STS. Light cell extracts were incubated with the respective catalytic tagging system for each of the two IAPs and the heavy extracts labeled only with the wild-type NEDD8 E2, Ubc12. […] 100 mg ^13C6^15N2 L-Lys.2HCl and 86 mg ^13C6 L-Arg.HCl (Cambridge Isotope) were added to the same amount of medium to generate the “Heavy” medium. Jurkat cells were cultured separately in “Light” or “Heavy” medium for 7 days to allow for thorough isotope incorporation. For IAP substrate identification, 400 million cells were treated with 2 μM STS for 4 hours, harvested, lysed in M-PER mammalian protein extraction buffer (Thermo/Pierce) in the presence of protease inhibitors (100× ProteoBlock cocktail, Fermentas) and mixed with cell lysate prepared from 400 million untreated cells. […] Purified NEDDylated proteins were trypsinized and analyzed with tandem mass spectrometry (LC-MS/MS).
For SILAC experiments, Jurkat cells were cultured separately in “Light” (supplemented with regular Lys and Arg) or “Heavy” (supplemented with ^13C6^15N2 Lys and ^13C6 Arg) medium for 7 days to allow for thorough isotope incorporation. Apoptotic “Light” and “Heavy” cell extracts were prepared individually. The lysates were cleared by spinning and then diluted in 50 mM HEPES pH 7.4, 150 mM NaCl to 5 mg/ml and supplemented with 5 mM ATP, 10 mM MgCl2. Endogenous NEDD8 E1 is cell lysate was used to catalyze the reaction. HB-NEDD8 was added to both lysate at mass ratio 1:500; the catalytic tagging system was added to the “Light” lysate at mass ratio 1:1000. Equal molar of Ubc12 was added to the “Heavy” lysate. […] NEDDylated proteins were separated by one-dimensional SDS-PAGE, and trypsinized for LC-MS/MS analysis.
For liquid chromatography—Tandem mass spectrometry (LC-MS/MS) analysis, the tryptic peptides were first desalted and concentrated with a C18 Ziptip (Millipore). LC-MS/MS was carried out by reverse phase LC interfaced with a LTQ-Orbitrap (ThermoFisher Scientific) hybrid mass spectrometer. A nanoflow HPLC (NanoAcquity UPLC system, Waters Corporation) was equipped with a trap column (180 μm×20 mm, 5 μm SymmetryC18, from Waters) and an analytical column (100 μm×100 mm, 1.7 μm BEH130C18, from Waters). Peptides were eluted over a linear gradient from 2% solvent A (0.1% formic acid in water) to 35% solvent B (0.1% formic acid in acetonitrile) at 350 nL/min over 35 min. MS and MS/MS spectra were acquired in a data-dependent mode with MS spectra acquired in the Orbitrap at 30,000 resolving power and 6 CID MS/MS spectra acquired per MS in the LTQ linear ion trap. Dynamic exclusion was set at 90 seconds to prevent repeated MS/MS on the same precursor ion.
The identified peptides were searched against a random decoy protein database for evaluating the false positive rates. […] The decoy peptides were removed from the data. Protein IDs were assigned only when at least two unique peptides were identified from the same protein. For SILAC experiment, Light/Heavy ratios for the identified peptides were calculated, using ProteinProspector. The media Light/Heavy ratios of all the peptides identified for each protein were used to represent the Light/Heavy ratio of the protein.

HeLa cells = experiment: Cell viability by CellTiter-Glo after STS treatment; assay type: cell-based; settings: 24 hours after transfection, STS 2 hours
Protocol: FIG. 13 illustrates functional studies of PGAM5 in cells. (A) PGAM5(Δ24) binds XIAP and cIAP1 in vivo. On the left, HEK293 cells were cotransfected with Flag-cIAP1 and PGAM5(FL)-Myc or PGAM5(Δ24)-Myc. Total cell lysates were analyzed by immune-blotting with anti-Flag and anti-Myc antibodies (bottom two panels). Anti-Myc immune-precipitates (IP) were subjected to immunoblot analysis using anti-Myc and anti-Flag antibodies (top two panels). On the right, PGAM5(Δ24)-Myc was transiently expressed in HEK293 cells. 36 hours after transfection, cells were lysed and subjected for Immuno-precipitation with either anti-Myc antibody or an isotype control antibody (mouse IgG). Proteins in the whole cell lysate (bottom three panels) and proteins that bind to the antibody conjugated sepharose beads (top three panels) were assayed with immunoblotting. […] 24 hours after transfection, cell viability was measured by Annexin V staining. […] Error bars represent SEM calculated from triplicate experiments. […] Cell viability is then immediately measured by CellTiter-Glo luminescent assay. […] PGAM5 levels are analyzed with anti-Myc immune-blotting before STS treatment. Error bars represent SEM calculated from triplicate samples.
HeLa cells were plated in 96 well plates and transfected with either empty vector or the PGAM5 construct. […] Luminescent signals were read using a SpectraMax (Molecular Devices) plate reader.

T1 sequence (Q13490+P61081 fused): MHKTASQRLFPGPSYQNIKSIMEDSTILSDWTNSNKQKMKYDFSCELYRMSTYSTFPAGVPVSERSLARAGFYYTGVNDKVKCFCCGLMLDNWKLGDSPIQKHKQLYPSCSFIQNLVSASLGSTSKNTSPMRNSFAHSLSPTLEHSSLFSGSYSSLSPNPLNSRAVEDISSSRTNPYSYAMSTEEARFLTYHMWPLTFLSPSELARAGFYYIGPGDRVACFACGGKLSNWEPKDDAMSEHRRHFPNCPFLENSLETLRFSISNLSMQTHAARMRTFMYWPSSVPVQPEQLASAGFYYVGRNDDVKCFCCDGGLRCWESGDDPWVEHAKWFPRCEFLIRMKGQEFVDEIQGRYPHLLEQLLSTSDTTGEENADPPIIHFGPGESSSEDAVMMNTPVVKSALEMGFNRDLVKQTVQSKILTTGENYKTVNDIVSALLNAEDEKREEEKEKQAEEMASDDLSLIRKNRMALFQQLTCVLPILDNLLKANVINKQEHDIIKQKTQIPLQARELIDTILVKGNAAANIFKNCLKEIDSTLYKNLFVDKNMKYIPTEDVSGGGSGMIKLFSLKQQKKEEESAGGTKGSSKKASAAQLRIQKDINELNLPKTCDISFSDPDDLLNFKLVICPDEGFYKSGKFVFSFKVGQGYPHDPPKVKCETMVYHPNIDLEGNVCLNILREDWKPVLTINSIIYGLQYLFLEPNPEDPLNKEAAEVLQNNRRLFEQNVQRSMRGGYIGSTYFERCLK

B1: Serine/threonine-protein phosphatase PGAM5, mitochondrial: phosphoglycerate mutase family member 5, dimeric protein phosphatase (protein, UniProt Q96HS1 1-289, looked up)
chain: MAFRQALQLAACGLAGGSAAVLFSAVAVGKPRAGGDAEPRPAEPPAWAGGARPGPGVWDPNWDRREPLSLINVRKRNVESGEEELASKLDHYKAKATRHIFLIRHSQYHVDGSLEKDRTLTPLGREQAELTGLRLASLGLKFNKIVHSSMTRAIETTDIISRHLPGVCKVSTDLLREGAPIEPDPPVSHWKPEAVQYYEDGARIEAAFRNYIHRADARQEEDSYEIFICHANVIRYIVCRALQFPPEGWLRLSLNNGSITHLVIRPNGRVALRTLGDTGFMPPDKITRS
modifications: full-length
notes: phosphoglycerate mutase family member 5, dimeric protein phosphatase
Question: For B1, which “L/H (Light/Heavy ratio)” value (cIAP1) is on record?
Answer: 23.7

Question: What about the “sensitization to apoptosis inducer STS” value (HeLa cells) of the same molecule?
Answer: sensitized cells to the apoptosis inducer STS
